Data set [1] deals with Asp143 (UniProt position 225, NIWSEDNADSG). As to the kind of experiment: NMR.
The target in data set [2] is Asp146 (UniProt position 228, SEDNADSGQ--). As to the kind of experiment: NMR.
Data set [3] deals with Asp19 (UniProt position 101, LIKAIDGDTVK). As to the kind of experiment: NMR.
Data set [4] has as its target Asp21 (UniProt position 103, KAIDGDTVKLM). As to the kind of experiment: NMR.
Data set [5] addresses Asp40 (UniProt position 122, RLLKVDTPETK). Nature of the data set: NMR. As to conditions: 298 K; 100 mM KCl, 0.5 mM NaN3 (no buffer stated); folded, no ligand.
Data set [6] deals with Asp83 (UniProt position 165, KGQRTDKYGRG). Nature of the data set: NMR.
In data set [7] the target is Asp95 (UniProt position 177, AYIYADGKMVN). Nature of the data set: NMR.
Data set [8] concerns the target Glu10 (UniProt position 92, KKLHKEPATLI). Nature of the data set: NMR.
The target of data set [9] is Glu101 (UniProt position 183, GKMVNEALVRQ). Nature of the data set: NMR.
In data set [10] the target is Glu122 (UniProt position 204, GNNTHEQLLRK). As to the kind of experiment: NMR.
In data set [11] the target is Glu129 (UniProt position 211, LLRKAEAQAKK). Nature of the data set: NMR.
The target in data set [12] is Glu135 (UniProt position 217, AQAKKEKLNIW). As to the kind of experiment: NMR.
Data set [13] has as its target Glu142 (UniProt position 224, LNIWSEDNADS). As to the kind of experiment: NMR.
The target in data set [14] is Glu43 (UniProt position 125, KVDTPETKHPK). As to the kind of experiment: NMR. Particulars: 298 K; 100 mM KCl, 0.5 mM NaN3 (no buffer stated); folded, no ligand.
The target in data set [15] is Glu52 (UniProt position 134, PKKFNEKYGPE). As to the kind of experiment: NMR.
The target of data set [16] is Glu57 (UniProt position 139, EKYGPEASAFT). As to the kind of experiment: NMR.
Data set [17] deals with Glu67 (UniProt position 149, TKKMVENAKKI). As to the kind of experiment: NMR.
The target in data set [18] is Glu73 (UniProt position 155, NAKKIEVEFDK). As to the kind of experiment: NMR.
Data set [19] has as its target Lys38 (UniProt position 120, TFRLLKVDTPE). Nature of the data set: stability. As to conditions: cited from earlier work.
The target of data set [20] is T1, Glu38 (UniProt position 120, TFRLLEVDTPE). Nature of the data set: NMR. Particulars: 298 K; 100 mM KCl, 0.5 mM NaN3 (no buffer stated); folded, no ligand.
In data set [21] the target is Asp40 (UniProt position 122, RLLEVDTPETK). As to the kind of experiment: NMR. As to conditions: 298 K; 100 mM KCl, 0.5 mM NaN3 (no buffer stated); folded, no ligand.
Data set [22] has as its target Asp77 (UniProt position 159, IEVEFDKGQRT). Nature of the data set: NMR.
Data set [23] addresses Glu43 (UniProt position 125, EVDTPETKHPK). Nature of the data set: NMR. Particulars: 298 K; 100 mM KCl, 0.5 mM NaN3 (no buffer stated); folded, no ligand.
Data set [24] deals with Glu75 (UniProt position 157, KKIEVEFDKGQ). Nature of the data set: NMR.
Data set [25] deals with T1, Glu38. As to the kind of experiment: stability. Particulars: folded/unfolded equilibrium, no ligand.
The target in data set [26] is T2, Asp38 (UniProt position 120, TFRLLDVDTPE). Nature of the data set: NMR. Particulars: 298 K; 100 mM KCl, 0.5 mM NaN3 (no buffer stated); folded, no ligand.
In data set [27] the target is T2, Asp38. As to the kind of experiment: stability. As to conditions: folded/unfolded equilibrium, no ligand.
The target of data set [28] is Asp40 (UniProt position 122, RLLLVDTPETK). As to the kind of experiment: NMR. Particulars: folded Δ+PHS nuclease; cited from earlier work.
Data set [29] addresses Glu43 (UniProt position 125, LVDTPETKHPK). As to the kind of experiment: NMR. Particulars: folded Δ+PHS nuclease; cited from earlier work.
For data set [30], the target named is His8 (UniProt position 90, STKKLHKEPAT). As to conditions: folded Δ+PHS nuclease; cited from earlier work.
Where [31] appears, read: 298 K, 100 mM KCl, 0.5 mM NaN3 (no buffer stated), folded, no ligand.
The mark [32] stands for this setting: folded Δ+PHS nuclease, cited from earlier work.

Broadly, the pKa is the negative logarithm of the acid dissociation constant.

Take “Staphylococcal nuclease Δ+PHS/L38K (Staphylococcus aureus; G50F;V51N;P117G;H124L;S128A;del44-49;L38K)”: the pKa in data set [1] (setting [31]) is 4.0; in data set [2] (setting [31]), 4.0; in [3] (setting [31]), less than 2.5; in data set [4] (setting [31]) it was 6.5; in data set [5], 3.8; in data set [6] (setting [31]) it was less than 2.5. Also, the pKa turned out to be 2.1 in data set [7] (setting [31]); 3.1 in data set [8] (setting [31]); 3.9 in data set [9] (setting [31]); 3.9 in data set [10] (setting [31]); 3.8 in [11] (setting [31]); 3.9 in data set [12] (setting [31]). Moreover, the pKa in [13] (setting [31]) turned out to be 4.6; in data set [14], 4.5; in data set [15] (setting [31]) it was 4.1; in data set [16] (setting [31]), 3.6; in data set [17] (setting [31]), 3.9; in [18] (setting [31]) it was 3.3. Also, in data set [19], the pKa is recorded as not below 10.4.

Consider “Staphylococcal nuclease Δ+PHS/L38E/E122Q (Staphylococcus aureus; G50F;V51N;P117G;H124L;S128A;del44-49;L38E;E122Q)”, for which the pKa in data set [20] is 6.2.

Substance “Staphylococcal nuclease Δ+PHS/L38E/D77N (Staphylococcus aureus; G50F;V51N;P117G;H124L;S128A;del44-49;L38E;D77N)” returned a pKa in data set [20] of 6.1.

For “Staphylococcal nuclease Δ+PHS/L38E (Staphylococcus aureus; G50F;V51N;P117G;H124L;S128A;del44-49;L38E)”, the pKa in data set [1] (setting [31]) is reported as 3.8; in [2] (setting [31]), 3.9; in [3] (setting [31]), less than 2.5; in [4] (setting [31]) it was 6.6; in data set [21] it was 3.9; in data set [22] (setting [31]) it was less than 2.5. Moreover, the pKa in data set [6] (setting [31]) is reported as less than 2.5; in [7] (setting [31]), 2.3; in [8] (setting [31]), 3.1; in [9] (setting [31]) it was 3.9; in data set [10] (setting [31]), 3.8; in data set [11] (setting [31]), 3.9. The pKa in data set [12] (setting [31]) is 3.8; in data set [13] (setting [31]), 4.5; in data set [20], 7.0; in [23], 4.4; in data set [15] (setting [31]) it was 4.0; in data set [16] (setting [31]) it was 3.6. Moreover, the pKa in [17] (setting [31]) is 3.8; in data set [18] (setting [31]) it was 3.4; in data set [24] (setting [31]), 3.3; in data set [25] it was 7.0 +/- 0.3.

Regarding “Staphylococcal nuclease Δ+PHS/L38E/E122D (Staphylococcus aureus; G50F;V51N;P117G;H124L;S128A;del44-49;L38E;E122D)”, in data set [20], the pKa turned out to be 7.4.

On to “Staphylococcal nuclease Δ+PHS/L38E/R126Q (Staphylococcus aureus; G50F;V51N;P117G;H124L;S128A;del44-49;L38E;R126Q)”, for which the pKa in data set [20] is given as 7.2.

Take “Staphylococcal nuclease Δ+PHS/L38D/E122Q (Staphylococcus aureus; G50F;V51N;P117G;H124L;S128A;del44-49;L38D;E122Q)”: the pKa in [26] is reported as 6.6; in data set [27], 6.9 +/- 0.3.

Take “Staphylococcal nuclease, Δ+PHS variant (Staphylococcus aureus; G50F;V51N;P117G;H124L;S128A;del44-49)”: the pKa in [1] (setting [32]) was 3.8; in [2] (setting [32]), 3.9; in [3] (setting [32]), 2.2; in data set [4] (setting [32]), 6.5; in data set [28], 3.9; in [22] (setting [32]), less than 2.5. In addition, the pKa in data set [6] (setting [32]) is reported as less than 2.5; in [7] (setting [32]) it was 2.2; in data set [8] (setting [32]), 2.8; in data set [9] (setting [32]), 3.8; in [10] (setting [32]) it was 3.9; in data set [11] (setting [32]) it was 3.8. Moreover, the pKa in data set [12] (setting [32]) is given as 3.8; in data set [13] (setting [32]), 4.5; in [29], 4.3; in data set [15] (setting [32]), 3.9; in data set [16] (setting [32]), 3.5; in [17] (setting [32]), 3.8. Besides, the pKa in data set [18] (setting [32]) is given as 3.3; in data set [24] (setting [32]), 3.3; in [30], 6.5.

On to “Staphylococcal nuclease Δ+PHS/L38D (Staphylococcus aureus; G50F;V51N;P117G;H124L;S128A;del44-49;L38D)”, for which the results for the pKa in [26] and in data set [27] were 7.2 and 6.8 +/- 0.3, respectively.

The values above are taken from PMC3373015.
